Reference: article PMC3418443

Target: IL-1 receptors on the surface of HIG-82 synoviocytes (rabbit (endogenous in HIG-82))
Experiment: flow cytometry on cells

Chain of IL-1β (P01584 117-269): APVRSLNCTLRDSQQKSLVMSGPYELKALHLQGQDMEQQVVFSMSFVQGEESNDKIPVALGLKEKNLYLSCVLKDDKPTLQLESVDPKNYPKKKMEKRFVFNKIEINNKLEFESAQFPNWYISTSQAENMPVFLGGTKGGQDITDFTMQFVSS

## IL-1β (from UniProt P01584 117-269) (ligand)
  % cells with bound IL-1Ra-particles after pre-block with IL-1β: 2.8%
